The target in this assay is R203M mutant of full-length SARS-CoV-2 nucleocapsid (R203M-FLN) (SARS-CoV-2). Put plainly: AUC.

The record followed here is doi:10.1101/2023.05.26.542392.

Take “R203M mutant of full-length SARS-CoV-2 nucleocapsid (R203M-FLN) (natural protein)”: the stoichiometry N – broadly, the number of molecules, sites or subunits per partner or assembly – came out at 2.
